From patent publication US8173397B2, “Folded recombinant catalytic fragments of multidomain serine proteases, preparation and uses thereof” (TargetEx Kft., priority 2002, dated 2012)

Columns and labels:
Format in all cases: biochemical
[1] = Autoactivation of MASP fragments followed on reducing SDS-PAGE; details: after renaturation / purification
Description: The catalytic region of MASP-1 and MASP-2, consisting of the two complement control protein modules and the serine protease domain (CCP1-CCP2-SP) (FIG. 3.) was expressed in E. coli BL-21 cells using the pET-17b expression vector. In the case of MASP-2, truncated fragments of the catalytic region (the serine protease domain with one CCP module and the serine protease domain alone) (FIG. 3) were also expressed in the same expression system. Since the recombinant proteins accumulated as inclusion bodies inside the bacterial cells, renaturation procedures were needed to restore the native, folded structure (see Materials and Methods). The renatured recombinant proteins were purified by ion exchange chromatography on Q-Sepharose Fast Flow and Mono-S columns. The renaturation and the purification procedures were followed by SDS-PAGE and the purified proteins were subjected to N-terminal sequencing. Before renaturation the inclusion body proteins yielded single bands on the reducing SDS-PAGE corresponding to the zymogen form of the enzymes. […] The MASP-1 CCP1-CCP2-SP fragment co-purified with a minor contaminant, which migrated on SDS-PAGE as a band of 24 kDa under reducing and at 39 kDa under non-reducing conditions. […] The cleavage occurred at the Arg^504-Asp^505 bond removing the histidine from the catalytic triad and thus causing the loss of its enzymatic activity. […]

live C3 = biological target: T1, live C3 (Homo sapiens, UniProt P01024); experiment: Cleavage of live C3 by MASP fragments, SDS-PAGE densitometry; details: from kcat/KM values
T1 construct: was isolated from fresh human serum; from tissue; host or cells: fresh human serum
Protocol: C2, C3, C3(NH3), C4 cleavage—Serial dilutions of MASP-1 and MASP-2 fragments ranging between concentrations of 1 μM and 10 pM were incubated at 37° C. in 20 mM HEPES, 140 mM NaCl, pH 7.4 with C2, C3, C3(NH3) or C4 at typical concentrations of 0.5-1 μM. The cleavage was followed by SDS-PAGE under reducing conditions. Desirable concentrations of the MASP fragments for further detailed kinetic analysis were chosen to be where half of the protein substrates were hydrolyzed during the first 20 minutes of incubation. The protein substrates C2, C3, C3(NH3) or C4 were then incubated with the selected concentrations of the MASP fragments at 37° C. in 20 mM HEPES, 140 mM NaCl, pH 7.4. Typically 11-13 samples were taken at varying time periods but always within 50 minutes from the beginning of the reaction. Cleavages rates were quantified by measuring the diminution of the cleaved chain visualized by Coomassie stained SDS-PAGs using a GEL DOC 1000 instrument and Molecular Analyst Software for densitometric calculations (Bio-Rad, Hercules, Calif., USA). The reactions were assumed to be of the Michaelis-Menten type. In the case of C3 and C3(NH3) cleavage a further reasonable assumption of KM>>[substrate] was made. […]

C2 = biological target: T2, C2 (Homo sapiens, UniProt P06681); experiment: C2 cleavage by MASP fragments; details: 37° C., pH 7.4; averages of 2 to 4 experiments, standard errors
T2 construct: from tissue
T2 sequence (P06681 21-752): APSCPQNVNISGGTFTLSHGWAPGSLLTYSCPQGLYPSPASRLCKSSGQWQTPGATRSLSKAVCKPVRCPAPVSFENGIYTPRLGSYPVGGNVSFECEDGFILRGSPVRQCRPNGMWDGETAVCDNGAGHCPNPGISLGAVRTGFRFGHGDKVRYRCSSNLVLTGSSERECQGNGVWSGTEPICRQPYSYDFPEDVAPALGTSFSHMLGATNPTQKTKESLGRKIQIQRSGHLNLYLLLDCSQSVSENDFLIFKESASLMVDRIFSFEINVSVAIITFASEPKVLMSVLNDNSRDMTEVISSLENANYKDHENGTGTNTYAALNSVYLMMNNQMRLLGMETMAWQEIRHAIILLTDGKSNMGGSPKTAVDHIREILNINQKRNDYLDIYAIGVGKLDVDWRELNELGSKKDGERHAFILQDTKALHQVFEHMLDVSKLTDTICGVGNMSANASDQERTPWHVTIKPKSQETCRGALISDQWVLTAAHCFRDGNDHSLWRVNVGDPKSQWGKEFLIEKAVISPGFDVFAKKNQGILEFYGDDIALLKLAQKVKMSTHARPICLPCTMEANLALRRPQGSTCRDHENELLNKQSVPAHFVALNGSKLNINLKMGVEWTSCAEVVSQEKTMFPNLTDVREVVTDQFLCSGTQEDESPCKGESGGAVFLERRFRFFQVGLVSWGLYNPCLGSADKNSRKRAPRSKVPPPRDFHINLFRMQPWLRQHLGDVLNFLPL
Protocol: C2, C3, C3(NH3), C4 cleavage—Serial dilutions of MASP-1 and MASP-2 fragments ranging between concentrations of 1 μM and 10 pM were incubated at 37° C. in 20 mM HEPES, 140 mM NaCl, pH 7.4 with C2, C3, C3(NH3) or C4 at typical concentrations of 0.5-1 μM. The cleavage was followed by SDS-PAGE under reducing conditions. Desirable concentrations of the MASP fragments for further detailed kinetic analysis were chosen to be where half of the protein substrates were hydrolyzed during the first 20 minutes of incubation. The protein substrates C2, C3, C3(NH3) or C4 were then incubated with the selected concentrations of the MASP fragments at 37° C. in 20 mM HEPES, 140 mM NaCl, pH 7.4. Typically 11-13 samples were taken at varying time periods but always within 50 minutes from the beginning of the reaction. Cleavages rates were quantified by measuring the diminution of the cleaved chain visualized by Coomassie stained SDS-PAGs using a GEL DOC 1000 instrument and Molecular Analyst Software for densitometric calculations (Bio-Rad, Hercules, Calif., USA). The reactions were assumed to be of the Michaelis-Menten type. In the case of C3 and C3(NH3) cleavage a further reasonable assumption of KM>>[substrate] was made. The constants KM, kcat and […] were estimated by unbiased non-linear regression methods regressing the data on the following equations: t=([S0]−[S]+KMln([S0]/[S]))/(kcat[E0]) or in the case of C3 and C3(NH3) cleavage on [S]=[S0]exp(−t[E0]kcat/KM).

T1 sequence (P01024 672-1663 limits assumed): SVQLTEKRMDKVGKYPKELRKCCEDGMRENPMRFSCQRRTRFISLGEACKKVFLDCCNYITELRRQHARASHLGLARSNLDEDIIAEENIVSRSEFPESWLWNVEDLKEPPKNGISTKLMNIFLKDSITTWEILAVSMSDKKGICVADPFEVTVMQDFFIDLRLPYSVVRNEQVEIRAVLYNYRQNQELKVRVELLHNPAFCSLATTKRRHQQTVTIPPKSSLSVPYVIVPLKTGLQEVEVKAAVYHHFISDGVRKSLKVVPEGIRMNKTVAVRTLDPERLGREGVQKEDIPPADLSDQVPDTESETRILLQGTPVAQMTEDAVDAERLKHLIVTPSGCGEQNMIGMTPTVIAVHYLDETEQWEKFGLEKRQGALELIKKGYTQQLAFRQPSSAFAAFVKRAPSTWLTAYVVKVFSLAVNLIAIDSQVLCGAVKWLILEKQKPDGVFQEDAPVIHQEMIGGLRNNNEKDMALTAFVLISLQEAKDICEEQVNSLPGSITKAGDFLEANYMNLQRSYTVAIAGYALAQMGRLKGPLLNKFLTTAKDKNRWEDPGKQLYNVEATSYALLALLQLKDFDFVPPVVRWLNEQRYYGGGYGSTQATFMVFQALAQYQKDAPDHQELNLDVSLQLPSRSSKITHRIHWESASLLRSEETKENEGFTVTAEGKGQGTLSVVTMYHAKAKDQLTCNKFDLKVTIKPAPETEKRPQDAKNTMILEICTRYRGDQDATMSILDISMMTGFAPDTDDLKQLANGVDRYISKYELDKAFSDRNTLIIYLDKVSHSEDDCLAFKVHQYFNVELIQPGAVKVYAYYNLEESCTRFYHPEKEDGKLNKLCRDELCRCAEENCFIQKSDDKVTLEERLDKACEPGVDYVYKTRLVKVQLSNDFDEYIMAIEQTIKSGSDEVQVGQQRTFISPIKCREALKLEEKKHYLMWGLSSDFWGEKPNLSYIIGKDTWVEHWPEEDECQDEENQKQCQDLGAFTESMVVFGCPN
T1 sequence (P01024 23-667 partner limits assumed): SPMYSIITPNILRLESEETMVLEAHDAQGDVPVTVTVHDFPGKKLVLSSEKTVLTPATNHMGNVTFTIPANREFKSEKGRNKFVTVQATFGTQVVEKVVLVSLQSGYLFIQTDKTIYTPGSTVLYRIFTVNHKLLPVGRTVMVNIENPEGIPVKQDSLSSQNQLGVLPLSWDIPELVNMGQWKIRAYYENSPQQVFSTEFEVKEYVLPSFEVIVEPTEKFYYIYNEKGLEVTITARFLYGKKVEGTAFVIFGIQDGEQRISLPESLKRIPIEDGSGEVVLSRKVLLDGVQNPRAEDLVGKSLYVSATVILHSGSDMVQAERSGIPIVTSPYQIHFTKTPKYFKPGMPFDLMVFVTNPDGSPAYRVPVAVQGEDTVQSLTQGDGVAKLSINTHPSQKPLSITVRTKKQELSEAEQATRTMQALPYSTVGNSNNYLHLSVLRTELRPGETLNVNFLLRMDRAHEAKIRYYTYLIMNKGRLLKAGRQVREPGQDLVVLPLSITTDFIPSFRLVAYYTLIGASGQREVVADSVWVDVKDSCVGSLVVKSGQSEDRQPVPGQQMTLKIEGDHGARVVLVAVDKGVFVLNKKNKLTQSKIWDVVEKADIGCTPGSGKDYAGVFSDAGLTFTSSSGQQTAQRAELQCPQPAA

B1: MASP-1γB: E. coli-expressed, refolded human MASP-1 CCP1-CCP2-SP fragment, Gly298 to Asn699 with N-terminal Ala-Ser-Met-Thr tag (protein)
chain 1: ASMTGNECPELQPPVHGKIEPSQAKYFFKDQVLVSCDTGYKVLKDNVEMDTFQIECLKDGTWSNKIPTCKIVDCRAPGELEHGLITFSTRNNLTTYKSEIKYSCQEPYYKMLNNNTGIYTCSAQGVWMNKVLGRSLPTCLPVCGLPKFSRKLMAR
chain 2: IFNGRPAQKGTTPWIAMLSHLNGQPFCGGSLLGSSWIVTAAHCLHQSLDPEDPTLRDSDLLSPSDFKIILGKHWRLRSDENEQHLGVKHTTLHPQYDPNTFENDVALVELLESPVLNAFVMPICLPEGPQQEGAMVIVSGWGKQFLQRFPETLMEIEIPIVDHSTCQKAYAPLKKKVTRDMICAGEKEGGKDACAGDSGGPMVTLNRERGQWYLVGTVSWGDDCGKKDRYGVYSYIHHNKDWIQRVTGVRN
For B1, the “autoactivation, in words” value [1] was “fully activated”, the “proteolytic action on 'live' C3 relative to 'dead' C3 (fold less)” value (live C3) was “about 20 fold” and the C2 kcat (C2) was 0.10 ± 0.07 s⁻¹.
